Measurements published in article PMC4288178, “CRISPR RNA binding and DNA target recognition by purified Cascade complexes from Escherichia coli”.
Residue numbers refer to the chain shown, from its start.

How the values were obtained:
[1] = molecular target: T1, Cascade- (crRNA-free Cse1-Cse2-Cas7-Cas5-Cas6e) (Escherichia coli (K12; expressed in …, UniProt Q46901;P76632;Q46899;Q46898;Q46897 1-502;1-160;1-363;1-224;1-199); experiment: EMSA; detectable binding; EMSA: 20 mM Tris-HCl pH 8, 20 mM NaCl, 10 nM 32P probe, 30 min at 30 or 37 C, 6% native PAGE; loading 10 min at 30 C with crRNA (0.5 uM in Fig 3). Kd values are printed only in Fig 5A (not in the material); settings: protein: recombinant; tags: N-terminal 6His on Cse1 (CasA); copies: 1;2;6;1;1; label: 5'-32P
T1 sequence 1: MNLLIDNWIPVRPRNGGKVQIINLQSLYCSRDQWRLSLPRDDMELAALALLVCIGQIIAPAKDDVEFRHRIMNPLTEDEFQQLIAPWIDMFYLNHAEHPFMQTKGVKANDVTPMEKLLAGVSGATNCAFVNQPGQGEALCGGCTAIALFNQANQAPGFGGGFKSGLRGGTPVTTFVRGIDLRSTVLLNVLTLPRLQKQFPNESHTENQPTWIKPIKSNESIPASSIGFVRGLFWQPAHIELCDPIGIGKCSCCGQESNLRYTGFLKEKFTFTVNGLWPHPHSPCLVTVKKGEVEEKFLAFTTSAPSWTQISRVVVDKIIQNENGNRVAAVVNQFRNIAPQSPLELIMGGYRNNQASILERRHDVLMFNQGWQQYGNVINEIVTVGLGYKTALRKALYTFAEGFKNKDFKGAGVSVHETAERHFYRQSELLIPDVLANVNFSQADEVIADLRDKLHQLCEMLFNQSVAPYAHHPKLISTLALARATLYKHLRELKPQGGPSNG
T1 sequence 2: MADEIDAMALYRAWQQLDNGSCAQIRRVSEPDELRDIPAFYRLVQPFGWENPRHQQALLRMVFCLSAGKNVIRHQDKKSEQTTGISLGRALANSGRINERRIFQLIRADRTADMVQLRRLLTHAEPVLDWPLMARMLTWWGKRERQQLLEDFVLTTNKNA
T1 sequence 3: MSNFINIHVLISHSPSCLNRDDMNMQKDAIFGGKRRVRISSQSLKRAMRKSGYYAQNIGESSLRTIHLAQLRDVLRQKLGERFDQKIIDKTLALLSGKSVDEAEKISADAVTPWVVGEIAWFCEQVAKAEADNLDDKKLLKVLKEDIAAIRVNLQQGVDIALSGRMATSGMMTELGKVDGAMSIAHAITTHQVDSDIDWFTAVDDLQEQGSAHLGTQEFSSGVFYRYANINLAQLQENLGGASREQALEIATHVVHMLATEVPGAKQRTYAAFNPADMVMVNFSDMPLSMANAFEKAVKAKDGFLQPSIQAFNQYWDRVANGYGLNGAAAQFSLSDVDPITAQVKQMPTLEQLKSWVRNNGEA
T1 sequence 4: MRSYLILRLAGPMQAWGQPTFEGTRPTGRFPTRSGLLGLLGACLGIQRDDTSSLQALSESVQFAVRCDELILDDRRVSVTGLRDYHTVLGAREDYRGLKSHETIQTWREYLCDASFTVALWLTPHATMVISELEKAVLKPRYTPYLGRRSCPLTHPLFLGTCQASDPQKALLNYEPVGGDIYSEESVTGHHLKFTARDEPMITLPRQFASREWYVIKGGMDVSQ
T1 sequence 5: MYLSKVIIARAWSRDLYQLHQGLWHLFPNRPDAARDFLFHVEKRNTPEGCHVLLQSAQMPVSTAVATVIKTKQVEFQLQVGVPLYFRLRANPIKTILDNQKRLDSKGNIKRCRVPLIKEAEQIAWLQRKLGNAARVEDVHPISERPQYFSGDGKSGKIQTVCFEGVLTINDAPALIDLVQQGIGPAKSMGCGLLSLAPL

[2] = molecular target: T2, Cascade+ (Cascade co-expressed with g8 crRNA) (Escherichia coli (K12; expressed in …, UniProt Q46901;P76632;Q46899;Q46898;Q46897 1-502;1-160;1-363;1-224;1-199); experiment: EMSA; EMSA: 20 mM Tris-HCl pH 8, 20 mM NaCl, 10 nM 32P probe, 30 min at 30 or 37 C, 6% native PAGE; loading 10 min at 30 C with crRNA (0.5 uM in Fig 3). Kd values are printed only in Fig 5A (not in the material); settings: protein: recombinant; tags: N-terminal 6His on Cse1 (CasA); copies: 1;2;6;1;1; label: DNA 5'-32P; guide + target strand
T2 sequence 1: T1 sequence 1
T2 sequence 2: T1 sequence 2
T2 sequence 3: T1 sequence 3
T2 sequence 4: T1 sequence 4
T2 sequence 5: T1 sequence 5

[3] = molecular target: T1, Cascade- (crRNA-free …); experiment: EMSA; loaded with crRNA1; EMSA: 20 mM Tris-HCl pH 8, 20 mM NaCl, 10 nM 32P probe, 30 min at 30 or 37 C, 6% native PAGE; loading 10 min at 30 C with crRNA (0.5 uM in Fig 3). Kd values are printed only in Fig 5A (not in the material); settings: protein: recombinant, tags: N-terminal 6His on Cse1 (CasA), copies: 1;2;6;1;1, label: DNA 5'-32P
[4] = molecular target: T2, Cascade+ (Cascade co-expressed with g8 …); experiment: EMSA; co-expressed crRNA; EMSA: 20 mM Tris-HCl pH 8, 20 mM NaCl, 10 nM 32P probe, 30 min at 30 or 37 C, 6% native PAGE; loading 10 min at 30 C with crRNA (0.5 uM in Fig 3). Kd values are printed only in Fig 5A (not in the material); settings: protein: recombinant; tags: N-terminal 6His on Cse1 (CasA); copies: 1;2;6;1;1; label: DNA 5'-32P; guide + blunt duplex
[5] = molecular target: T1, Cascade- (crRNA-free …); experiment: EMSA; EMSA: 20 mM Tris-HCl pH 8, 20 mM NaCl, 10 nM 32P probe, 30 min at 30 or 37 C, 6% native PAGE; loading 10 min at 30 C with crRNA (0.5 uM in Fig 3). Kd values are printed only in Fig 5A (not in the material); settings: protein: recombinant, tags: N-terminal 6His on Cse1 (CasA), copies: 1;2;6;1;1
[6] = molecular target: T1, Cascade- (crRNA-free …); experiment: EMSA; affinity slightly lower than crRNA1; EMSA: 20 mM Tris-HCl pH 8, 20 mM NaCl, 10 nM 32P probe, 30 min at 30 or 37 C, 6% native PAGE; loading 10 min at 30 C with crRNA (0.5 uM in Fig 3). Kd values are printed only in Fig 5A (not in the material); settings: protein: recombinant, tags: N-terminal 6His on Cse1 (CasA), copies: 1;2;6;1;1
[7] = label: DNA 5'-32P, guide + blunt duplex

B1: crRNA11 (-8/+18) (ssRNA)
RNA: AUAAACCGCUGUCUUUCGCUGCUGAGGGUGACGAUCCGCCGAGUUCCCCGCGCCAGCG
[1]
  binding result: binds

B2: crRNA12 (-8/+11) (ssRNA)
RNA: AUAAACCGCUGUCUUUCGCUGCUGAGGGUGACGAUCCGCCGAGUUCCCCGC
[1]
  binding result: binds

B3: crRNA13 (-8/+9) (ssRNA)
RNA: AUAAACCGCUGUCUUUCGCUGCUGAGGGUGACGAUCCGCCGAGUUCCCC
[1]
  binding result: binds

B4: g8 crRNA + g8 ssDNA (mixed)
RNA: AUAAACCGCUGUCUUUCGCUGCUGAGGGUGACGAUCCGCCGAGUUCCCCGCGCCAGCGGGG
DNA: CAGGGAGTTAAAGGCCGCTTTTGCGGGATCGTCACCCTCAGCAGCGAAAGACAGCATCGGAACGAGGGTAGCAACGGCT
[2]
  binding result: binds
[3]; guide + target strand
  binding result: binds

B5: g8 crRNA1 + g8 dsDNA (mixed)
RNA: B4 RNA
DNA 1: B4 DNA
DNA 2: AGCCGTTGCTACCCTCGTTCCGATGCTGTCTTTCGCTGCTGAGGGTGACGATCCCGCAAAAGCGGCCTTTAACTCCCTG
modifications: 2',3'-cyclic phosphate on crRNA
[4]
  binding result: binds
[3]; guide + blunt duplex
  binding result: binds

B6: crRNA2 + g8 dsDNA (mixed)
RNA: B4 RNA
DNA 1: B4 DNA
DNA 2: B5 DNA 2
modifications: no 2',3'-cyclic phosphate on crRNA
[5]; [7]
  binding result: binds

B7: crRNA7 (-8/+5) + g8 dsDNA (mixed)
RNA: AUAAACCGCUGUCUUUCGCUGCUGAGGGUGACGAUCCGCCGAGUU
DNA 1: B4 DNA
DNA 2: B5 DNA 2
[6]; [7]
  binding result: binds

B8: crRNA2 (-8/+21), no cyclic phosphate (structured_RNA)
RNA: B4 RNA
modifications: no 2',3'-cyclic phosphate
[5]; label: 5'-32P, 3' handle hairpin
  binding result: binds

B9: crRNA7 (-7/+5) + g8 dsDNA (mixed)
RNA: UAAACCGCUGUCUUUCGCUGCUGAGGGUGACGAUCCGCCGAGUU
DNA 1: B4 DNA
DNA 2: B5 DNA 2
[5]; [7]
  binding result: no binding

B10: crRNA7 (-6/+5) + g8 dsDNA (mixed)
RNA: AAACCGCUGUCUUUCGCUGCUGAGGGUGACGAUCCGCCGAGUU
DNA 1: B4 DNA
DNA 2: B5 DNA 2
[5]; [7]
  binding result: no binding

B11: crRNA7 (-8/+1G) + g8 dsDNA (mixed)
RNA: AUAAACCGCUGUCUUUCGCUGCUGAGGGUGACGAUCCGCCG
DNA 1: B4 DNA
DNA 2: B5 DNA 2
[5]; [7]
  binding result: binds

B12: crRNA7 (-8/+1A) + g8 dsDNA (mixed)
RNA: B11 RNA with G41A
DNA 1: B4 DNA
DNA 2: B5 DNA 2
[5]; [7]
  binding result: binds

B13: crRNA7 (-8/+1C) + g8 dsDNA (mixed)
RNA: B11 RNA with G41C
DNA 1: B4 DNA
DNA 2: B5 DNA 2
[5]; [7]
  binding result: binds

B14: crRNA7 (-8/+1U) + g8 dsDNA (mixed)
RNA: B11 RNA with G41U
DNA 1: B4 DNA
DNA 2: B5 DNA 2
[5]; [7]
  binding result: binds

B15: poly-C handle crRNA + g8 dsDNA (mixed)
RNA: CCCCCCCCCUGUCUUUCGCUGCUGAGGGUGACGAUCCGCCGAGUU
DNA 1: B4 DNA
DNA 2: B5 DNA 2
[5]; [7]
  binding result: no binding

B16: poly-A handle crRNA9 + g8 dsDNA (mixed)
RNA: B7 RNA with U2A, C6A, C7A, G8A
DNA 1: B4 DNA
DNA 2: B5 DNA 2
[5]; [7]
  binding result: no binding

B17: crRNA7 (-8/+5) (ssRNA)
RNA: B7 RNA
[6]; label: 5'-32P
  binding result: binds
